According to patent publication KR20220059924A (dated 2022):

Columns and labels:
랫 Tie2 단백질 = target: T1, 랫 Tie2 단백질 (rat, UniProt A0ABK0L6J5 19-1116); test: flow cytometry, HEK293T cells transfected with rat Tie2
T1 construct: whole, on cells; also called rat Tie2

마우스 Tie2 단백질 = target: T2, 마우스 Tie2 단백질 (mouse, UniProt Q02858 23-1122); test: flow cytometry, HEK293T cells transfected with mouse Tie2
T2 construct: whole, on cells; also called mouse Tie2

개 Tie2 단백질 = target: T3, 개 Tie2 단백질 (dog, UniProt A0A8I3S0B4 27-1128); test: flow cytometry, HEK293T cells transfected with dog Tie2
T3 construct: whole, on cells; also called dog Tie2

Measured: binding result

T2 sequence (Q02858 23-1122): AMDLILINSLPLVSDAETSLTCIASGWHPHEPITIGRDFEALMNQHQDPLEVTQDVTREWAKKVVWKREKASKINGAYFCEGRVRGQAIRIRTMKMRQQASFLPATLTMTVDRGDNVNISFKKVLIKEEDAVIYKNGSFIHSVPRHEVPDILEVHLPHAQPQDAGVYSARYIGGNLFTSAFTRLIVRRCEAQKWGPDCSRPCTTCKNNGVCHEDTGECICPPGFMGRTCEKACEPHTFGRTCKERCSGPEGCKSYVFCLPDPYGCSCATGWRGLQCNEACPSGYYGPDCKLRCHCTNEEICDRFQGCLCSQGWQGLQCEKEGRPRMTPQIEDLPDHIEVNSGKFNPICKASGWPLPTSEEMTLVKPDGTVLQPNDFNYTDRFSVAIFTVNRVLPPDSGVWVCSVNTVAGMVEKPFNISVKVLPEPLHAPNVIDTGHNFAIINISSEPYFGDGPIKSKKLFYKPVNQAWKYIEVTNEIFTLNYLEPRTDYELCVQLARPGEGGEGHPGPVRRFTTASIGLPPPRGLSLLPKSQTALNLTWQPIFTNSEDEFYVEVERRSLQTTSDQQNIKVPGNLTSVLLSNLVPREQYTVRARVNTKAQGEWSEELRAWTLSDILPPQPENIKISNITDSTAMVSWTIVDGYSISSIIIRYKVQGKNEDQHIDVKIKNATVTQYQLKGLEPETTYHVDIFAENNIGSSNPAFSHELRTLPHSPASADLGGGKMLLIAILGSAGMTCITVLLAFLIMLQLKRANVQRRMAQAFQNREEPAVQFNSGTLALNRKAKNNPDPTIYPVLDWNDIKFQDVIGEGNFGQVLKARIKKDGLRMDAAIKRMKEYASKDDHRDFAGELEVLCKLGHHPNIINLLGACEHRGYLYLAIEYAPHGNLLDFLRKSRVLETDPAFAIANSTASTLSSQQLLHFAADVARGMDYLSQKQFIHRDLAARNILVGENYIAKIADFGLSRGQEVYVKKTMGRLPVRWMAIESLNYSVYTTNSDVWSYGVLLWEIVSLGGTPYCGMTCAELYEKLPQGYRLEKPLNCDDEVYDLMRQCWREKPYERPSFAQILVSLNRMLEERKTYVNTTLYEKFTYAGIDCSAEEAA

B1: Ang1mab2-1 (antibody, human IgG1, kappa, V domains shown)
VH: QVQLVESGGGVVQPGRSLRLSCAASGFTFSSYAMHWVRQAPGKGLEWVAVISYDGSNKYYADSVKGRFTISRDNSKNTLYLQMNSLRAEDTAVYYCARQYSGVFEYWGQGTLITVSS
VL: DIQMTQSPDSLAVSLGERATINCKSSQSVLYRSNNRNYLAWYQQKLGQPPQLLIYWASTRESGVPDRFSGSGSGADFTLTISSLQAEDVAVYYCQQYFSIPYTFGQGTKLEIKR
notes: also called 제2 기본 항체
no binding (tested: 5ug/ml): all assays above
